{"source": "paper PMC10388305", "about": "“Synthesis and Evaluation of a Monomethyl Auristatin E—Integrin αvβ6 Binding Peptide–Drug Conjugate for Tumor Targeted Drug Delivery” (Journal of Medicinal Chemistry, 2023)", "key": {"DX3puro (−) cells": {"test_system": "DX3puro (−) cells", "assay": "Cell binding assay, DX3puro", "assay_type": "cell-based", "conditions": "1 h, 37 °C, γ-counter, n = 3", "excerpt": "Binding to cells with minimal to no expression of integrin αvβ6 was low at 4.4 ± 0.1% to DX3puro cells and 7.9 ± 0.4% to pancreatic MIA PaCa-2 cells. Binding of [^64Cu]PDC-1 to DX3puroβ6 (+) and BxPC-3 (+) was reduced by adding increasing amounts of DOTA-PDC-1, illustrating that the αvβ6-selective uptake could be blocked (Figure S3). Internalization of [^64Cu]-PDC-1 into cells was high with >50% of the bound radioactivity internalized for all cells expressing the integrin αvβ6. In comparison, cell binding of [^64Cu]2 to DX3puroβ6 (+) cells was 58.8 ± 2.3, and 3.3 ± 0.4% to the DX3puro (−) cells.\nCell binding and internalization assay. Binding and internalization were determined as previously described. […] The fraction of bound radioactivity was determined with a γ-counter (by measuring cell pellet and combined supernatants). To determine the fraction of internalized radioactivity, the cells were re-pelleted, and re-suspended in acidic wash buffer (0.2 M sodium acetate, 0.5 M sodium chloride, pH = 2.5, 300 μL, 4 °C, 5 min) to release surface bound activity, followed by a wash with PBS (300 μL). The internalized fraction was determined with a γ-counter (cell pellet vs. radioactivity released into supernatant). A Wizard 1470 or Wizard 2 2470 automatic γ-counter (Perkin-Elmer, Waltham, MA) was used to measure radioactivity samples. […]"}, "[1]": {"assay": "Blocking biodistribution, BxPC-3 model", "assay_type": "in vivo, mice", "conditions": "female, athymic nude, mouse, iv, total radioactivity, 4 h p.i., DOTA-2 (50 mg/kg, 205 nmol) i.v. 10 min prior, γ-counter, mean ± SD, n = 2", "protocol": "Aliquots of the formulated [^64Cu]PDC-1 in isotonic 0.9% saline (4.81–5.74 MBq, 1.7–2.1 μg, 0.26–0.31 nmol, 100 μL, pH 7.2) were injected i.v. as described above. Following the conscious uptake period, the mice were anesthetized (5% isoflurane), euthanized, and dissected (n ≥ 3/model/time point [4, 24, and 48 h]; the 48 h time point also included the imaging animals sacrificed after the PET scans). Tissues were collected, washed, weighed, and radioactivity measured in a γ-counter. Calibrated, decay-corrected radioactivity was expressed as the percentage of injected dose per gram of tissue (% ID/g). Data are reported as mean ± SD. The mean weights and standard deviation of the DX3puroβ6/DX3puro paired tumor model biodistribution mice were 24.3 ± 1.4 g at 4 h, 28.2 ± 2.9 g at 24 h, and 27.7 ± 2.6 g at 48 h. The mean weights and standard deviation of the BxPC-3 tumor model biodistribution mice were 25.1 ± 1.9 g at 4 h, 27.0 ± 1.1 g at 24 h and 27.1 ± 3.2 g at 48 h. For in vivo blocking studies, DOTA-2 (50 mg/kg, 205 nmol, 1.4 mg in 100 μL 0.9% saline) was injected i.v. into two animals/tumor model 10 min prior to [^64Cu]PDC-1. The animals were sacrificed after 4 h, tissues collected, washed, weighed, and radioactivity measured in a γ-counter. The mean weights and standard deviation for the blocking mice were 24.6 ± 0 and 27.9 ± 0.3 g for the DX3puroβ6/DX3puro paired and BxPC-3 tumor models, respectively.\nBlocking biodistribution data of [64Cu]PDC-1 in paired DX3puroβ6/DX3puro and BxPC-3 tumor models.\nTumor Model DX3puroβ6/DX3puro BxPC-3\nTable S6. Blocking biodistribution data of [ 64Cu]PDC-1 in paired DX3puroβ6/DX3puro and BxPC-3 tumor\nmodels. Tissue uptake is expressed as the mean of the percentage of injected dose per gram of tissue ±\nSD (n = 2/model, n/a = not applicable. P = 0.53 for DX3puroβ6 vs. DX3puro; P = 0.52 for BxPC-3 vs."}}, "note": "Like-named read-outs stand apart in the source and are kept apart here."}
{"smiles": "CC[C@H](C)[C@@H]([C@@H](CC(=O)N1CCC[C@H]1[C@H](OC)[C@@H](C)C(=O)N[C@H](C)[C@@H](O)c1ccccc1)OC)N(C)C(=O)[C@@H](NC(=O)[C@H](C(C)C)N(C)C(=O)OCc1ccc(NC(=O)[C@H](CCCNC(N)=O)NC(=O)[C@@H](NC(=O)CCOCCOCCNC(=O)CCN2C(=O)CC(SC[C@H](NC(=O)CN3CCN(CC(=O)O)CCN(CC(=O)O)CCN(CC(=O)O)CC3)C(=O)NCCOCCOCCOCCOCCOCCOCCOCCOCCOCCOCCOCCOCCOCCOCCOCCOCCOCCOCCOCCOCCOCCOCCOCCOCCOCCOCCOCCOCCC(=O)N[C@@H](CC(N)=O)C(=O)N[C@@H](C)C(=O)N[C@H](C(=O)N3CCC[C@H]3C(=O)N[C@@H](CC(N)=O)C(=O)N[C@@H](CC(C)C)C(=O)N[C@@H](CCCNC(=N)N)C(=O)NCC(=O)N[C@@H](CC(=O)O)C(=O)N[C@@H](CC(C)C)C(=O)N[C@@H](CCC(N)=O)C(=O)N[C@H](C(=O)N[C@@H](CC(C)C)C(=O)N[C@@H](C)C(=O)N[C@@H](CCC(N)=O)C(=O)N[C@@H](CCCNC(=N)N)C(=O)N[C@H](C(=O)N[C@@H](C)C(=O)N[C@@H](CCCNC(=N)N)C(=O)N[C@H](C(=O)NCCOCCOCCOCCOCCOCCOCCOCCOCCOCCOCCOCCOCCOCCOCCOCCOCCOCCOCCOCCOCCOCCOCCOCCOCCOCCOCCOCCOCCC(N)=O)[C@@H](C)O)C(C)C)C(C)C)C(C)C)C2=O)C(C)C)cc1)C(C)C", "note": "(some centres unmarked) [[^64Cu]PDC-1, metal not drawn]", "values": [{"measurement": "Cell binding", "setting": "DX3puro (−) cells", "value": "4.4 ± 0.1", "unit": "%"}, {"measurement": "tissue uptake at 4 h", "setting": "[1]; BxPC-3 (αvβ6 +) tumor, read-out: Tumor (αvβ6 +) BxPC-3 uptake, blocked", "value": "0.61 ± 0.05", "unit": "%ID/g"}, {"measurement": "tissue uptake at 4 h", "setting": "[1]; blood, read-out: Blood uptake, blocked", "value": "0.1 ± 0.02", "unit": "%ID/g"}, {"measurement": "tissue uptake at 4 h", "setting": "[1]; bone, read-out: Bone uptake, blocked", "value": "0.14 ± 0.03", "unit": "%ID/g"}, {"measurement": "tissue uptake at 4 h", "setting": "[1]; brain, read-out: Brain uptake, blocked", "value": "0.01 ± 0.01", "unit": "%ID/g"}, {"measurement": "tissue uptake at 4 h", "setting": "[1]; gall bladder, read-out: Gall Bladder uptake, blocked", "value": "0.94 ± 0.35", "unit": "%ID/g"}, {"measurement": "tissue uptake at 4 h", "setting": "[1]; heart, read-out: Heart uptake, blocked", "value": "0.21 ± 0.06", "unit": "%ID/g"}, {"measurement": "tissue uptake at 4 h", "setting": "[1]; kidney, read-out: Kidney uptake, blocked", "value": "25.7 ± 2.55", "unit": "%ID/g"}, {"measurement": "tissue uptake at 4 h", "setting": "[1]; large intestines, read-out: Large Intestines uptake, blocked", "value": "0.47 ± 0.08", "unit": "%ID/g"}, {"measurement": "tissue uptake at 4 h", "setting": "[1]; liver, read-out: Liver uptake, blocked", "value": "1.01 ± 0.16", "unit": "%ID/g"}, {"measurement": "tissue uptake at 4 h", "setting": "[1]; lung, read-out: Lung uptake, blocked", "value": "0.51 ± 0.16", "unit": "%ID/g"}, {"measurement": "tissue uptake at 4 h", "setting": "[1]; muscle, read-out: Muscle uptake, blocked", "value": "0.07 ± 0.01", "unit": "%ID/g"}, {"measurement": "tissue uptake at 4 h", "setting": "[1]; pancreas, read-out: Pancreas uptake, blocked", "value": "0.12 ± 0.01", "unit": "%ID/g"}, {"measurement": "tissue uptake at 4 h", "setting": "[1]; skin, read-out: Skin uptake, blocked", "value": "0.31 ± 0.02", "unit": "%ID/g"}, {"measurement": "tissue uptake at 4 h", "setting": "[1]; small intestines, read-out: Small Intestines uptake, blocked", "value": "0.51 ± 0.09", "unit": "%ID/g"}, {"measurement": "tissue uptake at 4 h", "setting": "[1]; spleen, read-out: Spleen uptake, blocked", "value": "0.22 ± 0.03", "unit": "%ID/g"}, {"measurement": "tissue uptake at 4 h", "setting": "[1]; stomach, read-out: Stomach uptake, blocked", "value": "0.38 ± 0.04", "unit": "%ID/g"}]}
